In publication PMC9482650, “Quantitative fragmentomics allow affinity mapping of interactomes” (Nature Communications, 2022):

Assays:
Assay in all cases: holdup assay
Set-up in all cases: key: below the threshold = too weak to quantify, mostly under pKd 3.1 to 4
[1] = molecular target: T1, FRMPD1, Q5SYB0
T1 sequence (Q5SYB0 52-145, limits assumed, looked up): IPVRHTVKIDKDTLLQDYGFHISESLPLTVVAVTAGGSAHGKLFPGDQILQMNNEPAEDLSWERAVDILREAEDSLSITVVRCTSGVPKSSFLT

[2] = molecular target: T2, CARD11, Q9BXL7
T2 sequence (Q9BXL7 662-765, limits assumed, looked up): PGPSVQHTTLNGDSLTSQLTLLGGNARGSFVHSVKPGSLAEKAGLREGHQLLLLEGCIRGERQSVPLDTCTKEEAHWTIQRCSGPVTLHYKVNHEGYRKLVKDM

[3] = molecular target: DLG4_1, P78352
[4] = molecular target: T3, NHERF3_1, Q5T2W1
T3 sequence (Q5T2W1 4-100, limits assumed, looked up): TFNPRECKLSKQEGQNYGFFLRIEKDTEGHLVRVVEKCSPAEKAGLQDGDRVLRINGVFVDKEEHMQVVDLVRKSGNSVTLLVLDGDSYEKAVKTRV

[5] = molecular target: GRID2IP_1, A4D2P6
[6] = molecular target: T4, PARD3B_1, Q8TEW8
T4 sequence (Q8TEW8 196-299, limits assumed, looked up): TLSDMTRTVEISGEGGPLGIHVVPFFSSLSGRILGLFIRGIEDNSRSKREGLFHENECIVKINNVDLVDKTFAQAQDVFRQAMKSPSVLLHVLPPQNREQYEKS

[7] = molecular target: T5, MPDZ_5, O75970
T5 sequence (O75970 695-796, limits assumed, looked up): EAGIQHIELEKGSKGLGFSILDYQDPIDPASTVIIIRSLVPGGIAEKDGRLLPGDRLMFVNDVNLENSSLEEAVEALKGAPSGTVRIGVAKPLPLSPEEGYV

[8] = molecular target: PDLIM1, O00151
[9] = molecular target: T6, GRIP1_7, Q9Y3R0
T6 sequence (Q9Y3R0 999-1096, limits assumed, looked up): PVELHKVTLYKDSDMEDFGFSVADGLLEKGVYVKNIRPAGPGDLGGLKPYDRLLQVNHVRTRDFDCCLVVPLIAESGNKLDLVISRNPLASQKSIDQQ

[10] = molecular target: NOS1, P29475
[11] = molecular target: T7, APBA3_1, O96018
T7 sequence (O96018 389-490, limits assumed, looked up): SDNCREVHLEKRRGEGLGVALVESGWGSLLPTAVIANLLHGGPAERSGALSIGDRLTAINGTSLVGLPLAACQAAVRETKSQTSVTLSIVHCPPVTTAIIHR

[12] = molecular target: Inadl_3, Q8NI35
[13] = molecular target: PARD3_3, Q8TEW0
[14] = molecular target: T8, GRIP1_5, Q9Y3R0
T8 sequence (Q9Y3R0 568-668, limits assumed, looked up): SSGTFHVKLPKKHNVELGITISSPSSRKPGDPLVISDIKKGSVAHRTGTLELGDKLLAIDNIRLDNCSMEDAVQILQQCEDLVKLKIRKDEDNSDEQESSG

[15] = molecular target: MAGI2_6, Q86UL8
[16] = molecular target: T9, LIN7A, O14910
T9 sequence (O14910 103-200, limits assumed, looked up): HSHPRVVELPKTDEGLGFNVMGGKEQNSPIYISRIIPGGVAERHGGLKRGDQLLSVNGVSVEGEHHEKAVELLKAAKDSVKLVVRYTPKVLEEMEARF

[17] = molecular target: MAGI2_3, Q86UL8
[18] = molecular target: FRMPD4, Q14CM0
[19] = molecular target: IL16_4, Q14005
[20] = molecular target: LDB3, O75112
[21] = molecular target: T10, APBA2_1, Q99767
T10 sequence (Q99767 563-664, limits assumed, looked up): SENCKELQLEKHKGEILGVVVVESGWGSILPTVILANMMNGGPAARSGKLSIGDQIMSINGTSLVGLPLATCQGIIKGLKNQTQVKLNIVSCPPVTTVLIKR

[22] = molecular target: T11, DLG3_1, Q92796
T11 sequence (Q92796 125-227, limits assumed, looked up): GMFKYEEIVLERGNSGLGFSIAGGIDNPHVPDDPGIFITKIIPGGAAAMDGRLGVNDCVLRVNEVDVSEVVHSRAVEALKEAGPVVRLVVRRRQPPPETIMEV

[23] = molecular target: T12, MPDZ_12, O75970
T12 sequence (O75970 1857-1958, limits assumed, looked up): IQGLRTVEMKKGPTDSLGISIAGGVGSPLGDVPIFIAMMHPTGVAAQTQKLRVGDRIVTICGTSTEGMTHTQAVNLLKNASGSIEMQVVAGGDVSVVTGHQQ

[24] = molecular target: T13, PDZRN3_1, Q9UPQ7
T13 sequence (Q9UPQ7 244-349, limits assumed, looked up): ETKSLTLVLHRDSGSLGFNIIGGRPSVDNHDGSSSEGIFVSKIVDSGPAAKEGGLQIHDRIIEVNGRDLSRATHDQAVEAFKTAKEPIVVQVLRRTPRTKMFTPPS

[25] = plain residues with an end cap or a label only (N-terminal biotin on a linker: ttds)
[26] = plain residues with an end cap or a label only (N-terminal biotin on a linker: ahx)
[27] = plain residues with an end cap or a label only (N-terminal biotin on a linker: ado-ado)

Sequence of PDLIM1, O00151 (O00151 1-87): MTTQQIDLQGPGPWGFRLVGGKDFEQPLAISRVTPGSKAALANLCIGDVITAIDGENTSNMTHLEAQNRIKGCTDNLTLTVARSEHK
Sequence of Inadl_3, Q8NI35 (Q8NI35 359-469): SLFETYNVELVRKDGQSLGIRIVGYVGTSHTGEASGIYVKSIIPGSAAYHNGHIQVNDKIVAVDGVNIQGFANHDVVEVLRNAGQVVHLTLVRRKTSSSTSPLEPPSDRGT
Sequence of DLG4_1, P78352 (P78352 62-152): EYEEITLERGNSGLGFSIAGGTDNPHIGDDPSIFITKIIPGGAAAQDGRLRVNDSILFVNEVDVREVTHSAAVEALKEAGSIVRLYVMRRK
Sequence of MAGI2_6, Q86UL8 (Q86UL8 1141-1229): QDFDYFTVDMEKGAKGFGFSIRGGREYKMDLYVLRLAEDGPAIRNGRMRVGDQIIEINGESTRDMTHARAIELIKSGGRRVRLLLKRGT
Sequence of MAGI2_3, Q86UL8 (Q86UL8 600-682): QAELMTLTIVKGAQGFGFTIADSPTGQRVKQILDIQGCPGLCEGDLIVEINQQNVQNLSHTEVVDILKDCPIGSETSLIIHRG
Sequence of FRMPD4, Q14CM0 (Q14CM0 67-160): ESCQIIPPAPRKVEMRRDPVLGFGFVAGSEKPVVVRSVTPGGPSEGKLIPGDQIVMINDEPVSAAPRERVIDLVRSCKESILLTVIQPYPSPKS
Sequence of PARD3_3, Q8TEW0 (Q8TEW0 582-685): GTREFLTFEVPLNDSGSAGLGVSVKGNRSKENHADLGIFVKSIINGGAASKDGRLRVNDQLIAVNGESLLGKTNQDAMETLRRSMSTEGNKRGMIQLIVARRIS
Sequence of GRID2IP_1, A4D2P6 (A4D2P6 1-87): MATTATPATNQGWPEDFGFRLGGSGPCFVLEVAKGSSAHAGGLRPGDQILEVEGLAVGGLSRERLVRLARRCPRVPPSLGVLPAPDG
Sequence of LDB3, O75112 (O75112 1-94): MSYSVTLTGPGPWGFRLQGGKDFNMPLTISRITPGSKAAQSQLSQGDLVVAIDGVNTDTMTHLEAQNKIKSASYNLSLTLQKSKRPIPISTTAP
Sequence of NOS1, P29475 (P29475 9-101): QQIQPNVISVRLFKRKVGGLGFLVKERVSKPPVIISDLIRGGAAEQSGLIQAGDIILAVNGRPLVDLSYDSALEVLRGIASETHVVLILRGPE
Sequence of IL16_4, Q14005 (Q14005 1229-1329): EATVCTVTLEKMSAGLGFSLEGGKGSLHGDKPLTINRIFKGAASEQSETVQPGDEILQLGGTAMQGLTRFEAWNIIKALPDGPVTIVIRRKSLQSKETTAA

Binder: RLQRRRETQV [HPV18-E6, P06463]
- pKd [1, 25]: below the threshold
- pKd [2, 25]: below the threshold
- pKd [3, 25]: 5.11
- pKd [4, 25]: 4.05
- pKd [5, 25]: below the threshold
- pKd [6, 25]: below the threshold
- pKd [7, 25]: below the threshold
- pKd [8, 25]: below the threshold
- pKd [9, 25]: below the threshold
- pKd [10, 25]: 3.71
- pKd [11, 25]: below the threshold
- pKd [12, 25]: below the threshold
- pKd [13, 25]: below the threshold
- pKd [14, 25]: below the threshold
- pKd [15, 25]: below the threshold
- pKd [16, 25]: 3.4
- pKd [17, 25]: 4.15
- pKd [18, 25]: below the threshold
- pKd [19, 25]: below the threshold
- pKd [20, 25]: below the threshold
- pKd [21, 25]: below the threshold
- pKd [22, 25]: 4.34
- pKd [23, 25]: below the threshold
- pKd [24, 25]: 4.82

Binder: RLPKIKETTV [FRMPD4, Q14CM0]
- pKd [1, 25]: below the threshold
- pKd [2, 25]: below the threshold
- pKd [3, 25]: 5.05
- pKd [4, 25]: below the threshold
- pKd [5, 25]: below the threshold
- pKd [6, 25]: 3.45
- pKd [7, 25]: below the threshold
- pKd [8, 25]: below the threshold
- pKd [9, 25]: below the threshold
- pKd [10, 25]: below the threshold
- pKd [11, 25]: below the threshold
- pKd [12, 25]: below the threshold
- pKd [13, 25]: below the threshold
- pKd [14, 25]: below the threshold
- pKd [15, 25]: 3.98
- pKd [16, 25]: 4.38
- pKd [17, 25]: 4.05
- pKd [18, 25]: 3.4
- pKd [19, 25]: below the threshold
- pKd [20, 25]: below the threshold
- pKd [21, 25]: below the threshold
- pKd [22, 25]: 4.51
- pKd [23, 25]: below the threshold
- pKd [24, 25]: 4.47

Binder: GYDWGPATDL [TJP3, O95049]
- pKd [1, 26]: below the threshold
- pKd [2, 26]: below the threshold
- pKd [3, 26]: 3.53
- pKd [4, 26]: below the threshold
- pKd [5, 26]: below the threshold
- pKd [6, 26]: 3.65
- pKd [7, 26]: below the threshold
- pKd [8, 26]: 4.41
- pKd [9, 26]: below the threshold
- pKd [10, 26]: below the threshold
- pKd [11, 26]: below the threshold
- pKd [12, 26]: 3.72
- pKd [13, 26]: 3.66
- pKd [14, 26]: below the threshold
- pKd [15, 26]: 5.24
- pKd [16, 26]: 3.66
- pKd [17, 26]: below the threshold
- pKd [18, 26]: 3.83
- pKd [19, 26]: below the threshold
- pKd [20, 26]: 3.97
- pKd [21, 26]: below the threshold
- pKd [22, 26]: 3.48
- pKd [23, 26]: below the threshold
- pKd [24, 26]: 3.69

Binder: EVVHTPETSV [SLC16A3, O15427]
- pKd [1, 25]: below the threshold
- pKd [2, 25]: below the threshold
- pKd [3, 25]: 3.9
- pKd [4, 25]: below the threshold
- pKd [5, 25]: below the threshold
- pKd [6, 25]: below the threshold
- pKd [7, 25]: below the threshold
- pKd [8, 25]: below the threshold
- pKd [9, 25]: 3.79
- pKd [10, 25]: 3.71
- pKd [11, 25]: below the threshold
- pKd [12, 25]: below the threshold
- pKd [13, 25]: below the threshold
- pKd [14, 25]: below the threshold
- pKd [15, 25]: 4.14
- pKd [16, 25]: below the threshold
- pKd [17, 25]: below the threshold
- pKd [18, 25]: below the threshold
- pKd [19, 25]: below the threshold
- pKd [20, 25]: below the threshold
- pKd [21, 25]: below the threshold
- pKd [22, 25]: below the threshold
- pKd [23, 25]: below the threshold
- pKd [24, 25]: 4.42

Binder: HNAFLSVTTV [PDZRN4, Q6ZMN7]
- pKd [1, 26]: below the threshold
- pKd [2, 26]: below the threshold
- pKd [3, 26]: below the threshold
- pKd [4, 26]: below the threshold
- pKd [5, 26]: below the threshold
- pKd [6, 26]: 3.55
- pKd [7, 26]: 3.49
- pKd [8, 26]: below the threshold
- pKd [9, 26]: below the threshold
- pKd [10, 26]: below the threshold
- pKd [11, 26]: below the threshold
- pKd [12, 26]: 3.66
- pKd [13, 26]: 3.81
- pKd [14, 26]: 3.55
- pKd [15, 26]: below the threshold
- pKd [16, 26]: 3.52
- pKd [17, 26]: 3.49
- pKd [18, 26]: 3.5
- pKd [19, 26]: 3.58
- pKd [20, 26]: 3.56
- pKd [21, 26]: 3.69
- pKd [22, 26]: 3.56
- pKd [23, 26]: below the threshold
- pKd [24, 26]: 3.56

Binder: PLSPEQPTKL [TRIM50, Q86XT4]
- pKd [1, 27]: below the threshold
- pKd [2, 27]: below the threshold
- pKd [3, 27]: below the threshold
- pKd [4, 27]: 3.53
- pKd [5, 27]: below the threshold
- pKd [6, 27]: 4.06
- pKd [7, 27]: below the threshold
- pKd [8, 27]: below the threshold
- pKd [9, 27]: below the threshold
- pKd [10, 27]: below the threshold
- pKd [11, 27]: below the threshold
- pKd [12, 27]: below the threshold
- pKd [13, 27]: below the threshold
- pKd [14, 27]: below the threshold
- pKd [15, 27]: below the threshold
- pKd [16, 27]: below the threshold
- pKd [17, 27]: below the threshold
- pKd [18, 27]: 3.61
- pKd [19, 27]: below the threshold
- pKd [20, 27]: below the threshold
- pKd [21, 27]: below the threshold
- pKd [22, 27]: below the threshold
- pKd [23, 27]: below the threshold
- pKd [24, 27]: below the threshold
